The experiment has as its target T1, Myc-Smo (6Myc-tagged Smoothened) (Drosophila, UniProt P91682 32-1036).
T1 sequence (looked up): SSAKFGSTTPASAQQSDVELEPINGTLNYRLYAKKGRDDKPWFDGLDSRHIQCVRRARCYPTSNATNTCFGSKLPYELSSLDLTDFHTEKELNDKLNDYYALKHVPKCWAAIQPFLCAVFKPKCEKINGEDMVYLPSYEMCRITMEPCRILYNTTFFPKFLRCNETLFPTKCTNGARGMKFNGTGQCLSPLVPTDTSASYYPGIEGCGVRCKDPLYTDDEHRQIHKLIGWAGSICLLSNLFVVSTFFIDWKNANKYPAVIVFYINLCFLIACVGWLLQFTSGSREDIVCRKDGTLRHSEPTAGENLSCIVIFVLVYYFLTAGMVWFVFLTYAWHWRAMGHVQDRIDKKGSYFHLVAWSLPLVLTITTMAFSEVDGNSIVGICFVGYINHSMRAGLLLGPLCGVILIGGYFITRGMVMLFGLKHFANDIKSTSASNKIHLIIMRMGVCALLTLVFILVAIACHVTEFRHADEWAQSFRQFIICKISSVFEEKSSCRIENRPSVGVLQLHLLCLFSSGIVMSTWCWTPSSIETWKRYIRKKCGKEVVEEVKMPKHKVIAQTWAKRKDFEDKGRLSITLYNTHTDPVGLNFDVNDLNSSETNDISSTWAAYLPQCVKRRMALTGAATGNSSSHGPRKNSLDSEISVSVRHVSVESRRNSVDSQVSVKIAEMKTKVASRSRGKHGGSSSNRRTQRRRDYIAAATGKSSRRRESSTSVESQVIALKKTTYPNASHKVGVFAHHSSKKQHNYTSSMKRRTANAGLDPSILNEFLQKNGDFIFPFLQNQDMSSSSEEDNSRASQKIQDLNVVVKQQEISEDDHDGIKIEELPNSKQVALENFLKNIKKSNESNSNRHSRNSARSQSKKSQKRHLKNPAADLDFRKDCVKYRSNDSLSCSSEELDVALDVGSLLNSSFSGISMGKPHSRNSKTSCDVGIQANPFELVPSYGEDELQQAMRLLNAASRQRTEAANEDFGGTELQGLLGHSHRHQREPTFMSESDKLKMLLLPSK
Nature of the experiment: co-IP; lysates of stable Myc-Smo S2 cells transiently transfected with pAWF-krz constructs, grown in Hh conditioned medium for 18-24 hrs; immunoprecipitated with anti-Myc agarose at 4°C for 4-16 h with 1 mg/ml BSA (IP buffer: 40 mM Tris-HCl, 200 mM NaCl, 1% Chapso, 0,5% NP40); blotted with anti-Krz serum and anti-Myc. The settings on record: partners not purified.

Substitutions are numbered along the chain they refer to. Names may count otherwise.

B1: Krz^Leu-Flag (pAWF-Krz^Leu; Leu440-Ile441-Leu443 to Ala) (natural protein, Drosophila, UniProt Q9V393 1-470, looked up)
chain: MNGGGGGSGGANVSNGSSTNVTAAGSTGGGSAGDETGGDASSRRQATRVFKKSSSNGKITVYLGKRDFVDHVTHVDPIDGVVFIDPEYVKDRKVFGQVLAAFRYGREDLDVLGLTFRKDLYLAHEQIYPPMQLDRPMTRLQERLIKKLGPNAHPFYFEVPPYCPASVSLQPAPGDVGKSCGVDYELKAFVGENVEDKPHKRNSVRLTIRKVMYAPSKVGEQPSIEVSKEFMMKPNKIHLEATLDKELYHHGEKISVNVHVANNSNRTVKKIKVCVRQFADICLFSTAQYKSVVAEIESEDGCQVAPGFTLSKVFELCPLLANNKDKWGLALDGQLKHEDTNLASSTLITNPAQRESLGIMVHYKVKVKLLISSPLLNGDLVAELPFTLMHPKPEEEEHPLLGERSPRASLAGGGLPLVSMSDGETESATGGQDVPTTTNAAQADDDEAQDDDIIFEDFARLRLKGAETEA
On to B1, for which the “fold of co-immunoprecipitate over wild type Krz” value is 4 times over wild type Krz.

B2: Krz^V94D-Flag (pAWF-Krz^V94D) (natural protein, Drosophila, UniProt Q9V393 1-470, looked up)
chain: B1 chain with V94D, A440L, A441I, A443L
Take B2: the “fold of co-immunoprecipitate over wild type Krz” value was 3 times over wild type Krz.

The values are drawn from PMC3060076 (PLoS Genetics, 2011).
